Test results from patent publication US20040247566A1.

Biological target: human IL-9 receptor (human) (UniProt Q01113)
Test: cell-based or functional assay

Sequence of UniProt Q01113 (Q01113 41-521, chain 1 of 2): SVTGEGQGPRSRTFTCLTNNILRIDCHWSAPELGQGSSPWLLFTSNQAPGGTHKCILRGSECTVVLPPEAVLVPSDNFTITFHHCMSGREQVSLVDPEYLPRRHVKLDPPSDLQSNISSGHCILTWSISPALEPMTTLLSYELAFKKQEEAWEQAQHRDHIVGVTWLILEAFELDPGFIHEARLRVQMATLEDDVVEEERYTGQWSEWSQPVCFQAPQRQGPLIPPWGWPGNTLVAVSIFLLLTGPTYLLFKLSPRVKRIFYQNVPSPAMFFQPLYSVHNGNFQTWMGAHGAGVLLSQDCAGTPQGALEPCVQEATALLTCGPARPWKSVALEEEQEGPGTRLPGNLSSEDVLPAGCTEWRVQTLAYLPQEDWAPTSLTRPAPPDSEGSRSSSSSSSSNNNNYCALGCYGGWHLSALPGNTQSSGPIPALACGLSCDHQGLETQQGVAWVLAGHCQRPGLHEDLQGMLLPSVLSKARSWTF
Sequence of UniProt Q01113 (P31785 23-369, chain 2 of 2, further chain): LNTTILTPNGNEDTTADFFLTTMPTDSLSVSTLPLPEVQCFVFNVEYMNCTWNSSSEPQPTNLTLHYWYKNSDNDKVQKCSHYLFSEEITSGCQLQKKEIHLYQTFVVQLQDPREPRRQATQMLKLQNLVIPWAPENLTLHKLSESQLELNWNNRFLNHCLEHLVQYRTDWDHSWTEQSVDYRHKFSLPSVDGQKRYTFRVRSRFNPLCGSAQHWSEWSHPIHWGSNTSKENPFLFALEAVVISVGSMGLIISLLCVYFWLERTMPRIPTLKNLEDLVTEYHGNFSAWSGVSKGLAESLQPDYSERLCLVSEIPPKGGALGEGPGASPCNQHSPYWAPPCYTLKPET

IC50, antagonism of IL-9 mediated Mo7e proliferation (0.357 nM wild-type IL-9) | Substance | IC50, antagonism of IL-9-mediated eosinophil survival (7.14 nM wild-type IL-9)
1.15 nM | Amino-terminal Fc-fusion construct of the K126E/Q133K IL-9 mutein (Fc fusion) | 25.5 nM
0.66 nM | Carboxy-terminal Fc-fusion construct of the K126E/Q133K IL-9 mutein (Fc fusion) | 4.92 nM
